Assay results taken from patent publication US20250277030A1 (Zymeworks, published 2025).
Numbering of substitutions follows the chain as printed.

Columns and labels:
[1] = target: T1, human sodium-dependent phosphate transporter 2B (NaPi2b) (human, UniProt O95436 1-690); assay: flow cytometry, IGROV-1 cells (endogenous NaPi2b), 24 h at 4 °C; apparent Kd
T1 construct: UniProt ID is given as 095436 [sic]; also called hNaPi2b; Hu NaPi2b
T1 sequence: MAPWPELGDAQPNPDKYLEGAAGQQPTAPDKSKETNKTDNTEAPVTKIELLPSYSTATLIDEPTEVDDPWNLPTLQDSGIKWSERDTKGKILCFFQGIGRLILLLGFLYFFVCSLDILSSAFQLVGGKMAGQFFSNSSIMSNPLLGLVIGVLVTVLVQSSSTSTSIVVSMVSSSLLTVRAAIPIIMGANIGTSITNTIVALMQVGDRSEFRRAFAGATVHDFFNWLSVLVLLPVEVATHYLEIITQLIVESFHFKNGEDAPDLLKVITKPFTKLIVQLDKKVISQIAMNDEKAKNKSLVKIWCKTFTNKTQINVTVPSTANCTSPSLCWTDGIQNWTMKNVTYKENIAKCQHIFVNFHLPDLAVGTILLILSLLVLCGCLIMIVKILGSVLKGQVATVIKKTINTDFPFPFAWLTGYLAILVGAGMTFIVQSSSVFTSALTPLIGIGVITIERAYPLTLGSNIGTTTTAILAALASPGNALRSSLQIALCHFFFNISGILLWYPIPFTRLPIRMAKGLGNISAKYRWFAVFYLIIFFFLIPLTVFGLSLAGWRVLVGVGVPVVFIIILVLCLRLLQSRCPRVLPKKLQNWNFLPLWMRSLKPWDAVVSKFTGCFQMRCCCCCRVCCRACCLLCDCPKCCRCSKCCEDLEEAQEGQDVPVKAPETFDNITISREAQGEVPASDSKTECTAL
Description: (§1) IGROV-1 cells express endogenous NaPi2b at a high level.
(§2) Briefly, cells were seeded at 50,000 cells/well in conical-bottom 96-well plates and treated with test antibody for 24 hours at 4° C. to prevent internalization. […] Following incubation, cells were washed and stained with anti-Human IgG Fc AF647 conjugate (Jackson Immuno Research Labs, West Grove, PA; Cat. No. 109-605-098) at 4° C. for 30 min. Following incubation and washing, fluorescence was detected by flow cytometry on a BD LSRFortessa™ Cell Analyzer (BD Biosciences, Franklin Lake, NJ) with 1,000 minimum events collected per well. The AF647/APC-A GeoMean (fluorescence signal geometric mean, proportional to anti-Human AF647 binding) was calculated for the live cell population using FlowJo™ Version 10.8.1 (BD Biosciences, Franklin Lake, NJ) and plotted for each test antibody using GraphPad Prism Version 9 (GraphPad Software, San Diego, CA).

[2] = target: T1, human sodium-dependent phosphate …; assay: flow cytometry, IGROV-1 cells (endogenous NaPi2b), 24 h at 4 °C
Description: as §1, §2

[3] = target: T1, human sodium-dependent phosphate …; assay: cell-based or functional assay
cynomolgus monkey NaPi2b [4] = target: T2, cynomolgus monkey NaPi2b (cynomolgus monkey, UniProt O95436 1-690 (human entry)); assay: flow cytometry, HEK293-6e cells transfected with cynomolgus NaPi2b; apparent Kd
T2 construct: Transiently expressed on HEK293-6e cells; also called Cyno NaPi2b
T2 chain: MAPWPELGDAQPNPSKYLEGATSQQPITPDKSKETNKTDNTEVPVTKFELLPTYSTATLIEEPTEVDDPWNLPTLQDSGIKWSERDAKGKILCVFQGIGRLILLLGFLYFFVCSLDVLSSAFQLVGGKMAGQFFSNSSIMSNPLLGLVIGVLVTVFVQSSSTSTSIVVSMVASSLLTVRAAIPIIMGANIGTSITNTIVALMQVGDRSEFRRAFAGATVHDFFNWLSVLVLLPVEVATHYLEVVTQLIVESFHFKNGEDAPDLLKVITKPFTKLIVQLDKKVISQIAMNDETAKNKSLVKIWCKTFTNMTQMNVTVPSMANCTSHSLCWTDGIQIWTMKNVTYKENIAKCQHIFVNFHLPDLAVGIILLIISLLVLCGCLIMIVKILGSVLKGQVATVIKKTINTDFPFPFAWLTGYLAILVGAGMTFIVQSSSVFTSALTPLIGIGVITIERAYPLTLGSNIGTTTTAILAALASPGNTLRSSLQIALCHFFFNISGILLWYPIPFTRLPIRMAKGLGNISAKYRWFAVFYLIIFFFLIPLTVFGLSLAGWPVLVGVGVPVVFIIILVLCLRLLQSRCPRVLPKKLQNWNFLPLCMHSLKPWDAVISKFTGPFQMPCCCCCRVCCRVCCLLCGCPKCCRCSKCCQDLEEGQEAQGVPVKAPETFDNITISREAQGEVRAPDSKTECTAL
Description: (§3) The binding cross-reactivity of humanized antibody variant v29456 to human, cynomolgus and mouse NaPi2b was assessed by flow cytometry using HEK293-6e transfected cells.
(§4) Briefly, HEK293-6e cells were transfected for ˜24 hours to transiently express human NaPi2b, cynomolgus or mouse NaPi2b, at 1 μg of DNA per 1 million cells. Following transfection, 50,000 cells per well were seeded in V-bottom 96-well plates and incubated with 200 nM of primary antibody for 18-24 hours at 4° C. to prevent internalization. Post-incubation, cells were washed and stained with anti-Human IgG Fc AF647 conjugate (Jackson Immuno Research Labs, West Grove, PA, Cat. No. 109-605-098, Lot. No. 124868) at 4° C. for 1 hour. Following staining and washing, fluorescence was detected by flow cytometry on BD LSRFortessa™ Cell Analyzer (BD Biosciences, Franklin Lake, NJ) with 10,000 minimum events collected per well. The AF647/APC-A GeoMean (fluorescence signal geometric mean, proportional to anti-Human AF647 binding) was calculated for the live singlet cell population for each primary antibody using FlowJo™ v8 software (BD Biosciences, Franklin Lake, NJ). The Bmax and Kd of each primary antibody were calculated using GraphPad Prism Version 9 (GraphPad Software, San Diego, CA)

[5] = target: T1, human sodium-dependent phosphate …; assay: flow cytometry, IGROV-1 cells (endogenous NaPi2b); apparent Kd
Description: as §2
(§5) The ability of the humanized antibody variants v38591 and v29456 to bind to NaPi2b expressed on cells was assessed on endogenous NaPi2b-expressing tumor cell lines IGROV-1 (ovarian adenocarcinoma) and TOV-21G (ovarian carcinoma) by flow cytometry.
(§6) Cellular binding was performed according to methods described in Example 13.

[6] = target: T1, human sodium-dependent phosphate …; assay: flow cytometry, HEK293-6e cells transfected with human NaPi2b
Description: as §3, §4

cynomolgus monkey NaPi2b [7] = target: T2, cynomolgus monkey NaPi2b; assay: flow cytometry, HEK293-6e cells transfected with cynomolgus NaPi2b
Description: as §3, §4

[8] = target: T1, human sodium-dependent phosphate …; assay: flow cytometry, HEK293-6e cells transfected with human NaPi2b; apparent Kd
Description: as §3, §4

[9] = target: T1, human sodium-dependent phosphate …; assay: flow cytometry on TOV-21G cells (endogenous NaPi2b), 24 h at 4 C, anti-human IgG Fc AF647 detection
Description: as §2, §5, §6

[10] = target: T1, human sodium-dependent phosphate …; assay: flow cytometry on IGROV-1 cells (endogenous NaPi2b), 24 h at 4 C, anti-human IgG Fc AF647 detection
Description: as §2, §5, §6

[11] = target: T1, human sodium-dependent phosphate …; assay: flow cytometry, TOV-21G cells (endogenous NaPi2b); apparent Kd
Description: as §2, §5, §6

[12] = target: T1, human sodium-dependent phosphate …; assay: flow cytometry, HEK293-6e cells transfected with human NaPi2b; apparent Kd; remark: listed apart in the source
Description: The binding cross-reactivity of humanized antibody variant v38591 to human NaPi2b, NaPi2a, and NaPi2c was assessed by flow cytometry using HEK293-6e transfected cells.
Following transfection, cells were seeded at 50,000 cells/well in conical-bottom 96-well plates and treated with test antibody for 24 hours at 4° C. to prevent internalization. Following incubation, cells were washed and stained with anti-Human IgG Fc AF647 conjugate (Jackson Immuno Research Labs, West Grove, PA; Cat. No. 109-605-098) or anti-Rabbit IgG F(ab″)2 AF647 conjugate (Jackson Immuno Research Labs, West Grove, PA; Cat. No. 111-605-047). Following incubation and washing, fluorescence was detected by flow cytometry on a BD LSRFortessa™ Cell Analyzer (BD Biosciences, Franklin Lake, NJ) with 1,000 minimum events collected per well. The AF647/APC-A GeoMean (fluorescence signal geometric mean, proportional to anti-Human AF647 binding) was calculated for the live cell population using FlowJo™ Version 10.8.1 (BD Biosciences, Franklin Lake, NJ) and plotted for each test antibody using GraphPad Prism Version 9 (GraphPad Software, San Diego, CA).

B1: v18993-DL2, lifastuzumab conjugated to MT-VC-Compound 1 (DAR 4) (antibody, human IgG1, kappa)
heavy 1: GEVQLVESGGGLVQPGGSLRLSCAASGFSFSDFAMSWVRQAPGKGLEWVATIGRVAFHTYYPDSMKGRFTISRDNSKNTLYLQMNSLRAEDTAVYYCARHRGFDVGHFDFWGQGTLVTVSSASTKGPSVFPLAPSSKSTSGGTAALGCLVKDYFPEPVTVSWNSGALTSGVHTFPAVLQSSGLYSLSSVVTVPSSSLGTQTYICNVNHKPSNTKVDKKVEPKSCDKTHTCPPCPAPELLGGPSVFLFPPKPKDTLMISRTPEVTCVVVDVSHEDPEVKFNWYVDGVEVHNAKTKPREEQYNSTYRVVSVLTVLHQDWLNGKEYKCKVSNKALPAPIEKTISKAKGQPREPQVYVYPPSRDELTKNQVSLTCLVKGFYPSDIAVEWESNGQPENNYKTTPPVLDSDGSFALVSKLTVDKSRWQQGNVFSCSVMHEALHNHYTQKSLSLSPG
heavy 2: not shown
light: GDIQMTQSPSSLSASVGDRVTITCRSSETLVHSSGNTYLEWYQQKPGKAPKLLIYRVSNRFSGVPSRFSGSGSGTDFTLTISSLQPEDFATYYCFQGSFNPLTFGQGTKVEIKRTVAAPSVFIFPPSDEQLKSGTASVVCLLNNFYPREAKVQWKVDNALQSGNSQESVTEQDSKDSTYSLSSTLTLSKADYEKHKVYACEVTHQGLSSPVTKSFNRGEC
modifications: MT-VC-Compound 1 (DL2) on cysteines freed by reduction; positions not given; MT-VC-Compound 1 (DL2) on cysteines freed by reduction; positions not given; DAR 4 for the whole antibody
notes: also called Lifa Compound 1 ADC; lifastuzumab-DL2 ADC
Kd [1]: 3 nM | Bmax (MFI) [2]: 39800 MFI | In vitro cytotoxicity EC50 (nM), HCC-78 [3]: 1.77 nM | In vitro cytotoxicity EC50 (nM), IGROV-1 [3]: 2.12 nM | In vitro cytotoxicity EC50 (nM), OVCAR-3 [3]: 0.49 nM

B2: v18993, reference anti-NaPi2b antibody lifastuzumab (antibody, human IgG1, kappa)
heavy 1: B1 heavy 1
heavy 2: not shown
light: B1 light
notes: Two different heavy chain clones (CL_#11677, CL_#11678)
Kd (cynomolgus monkey NaPi2b [4]): 6.27 nM | Kd [5]: 0.81 nM | Bmax (APC-A GeoMean) [6]: 1610 APC-A GeoMean | Bmax (APC-A GeoMean) (cynomolgus monkey NaPi2b [7]): 1560 APC-A GeoMean | Kd [8]: 1.22 nM | EC50 (read off the curve) [9]: ~0.7 nM | EC50 (read off the curve) [10]: ~0.8 nM | Kd [11]: 0.67 nM | Kd [12]: 5.76 nM

B3: v29459 humanized anti-NaPi2b antibody (H2L1) (antibody, human IgG1, kappa, V domains shown)
VH: QVQLVQSGAEVKKPGASVKVSCKASGFTFTSYNVHWVRQAPGQGLEWIAAISPGNGDLSYAQKFQGRVTMTVDTSTSTVYMELSSLRSEDTAVYYCARGRTGMGAVDYWGQGTLVTVSS
VL: DIQMTQSPSSLSASVGDRVTITCRASQDVYSYLNWYQQKPGKAPKLLIYYTSRLQSGVPSRFSGSGSGTDFTLTISSLQPEDFATYYCQQYNIFPWTFGQGTKLEIKR
Kd [1]: 1.61 nM | Bmax (MFI) [2]: 40900 MFI

B4: v29460 humanized anti-NaPi2b antibody (H1L1) (antibody, human IgG1, kappa, V domains shown)
VH: B3 VH with I48M, A49G, V72R
VL: B3 VL
Kd [1]: 1.67 nM | Bmax (MFI) [2]: 40100 MFI
